B1: HpMutS2-E413A (enzyme)
chain: MSDAPKRSLNPTLMMNNNNTPPKPLEESLDLKEFIALFKTFFAKERDTIALENDLKQTFTYLNEVDAIGLPTPKSVKESDLIIIKLTKLGTLHLDEIFEIVKRLHYIVVLQNAFKTFTHLKFHERLNAIVLPPFFNDLIALFDDEGKIKQGANATLDALNESLNRLKKESVKIIHHYARSKELAPYLVDTQSHLKHGYECLLLKSGFSGAIKGVVLERSANGYFYLLPESAQKIAQKIAQIGNEIDCCIVEMCQTLSHSLQKHLLFLKFLFKEFDFLDSLQARLNFAKAYNLEFVMPSFTQKKMILENFSHPILKEPKPLNLKFEKSMLAVTGVNAGGKTMLLKSLLSAAFLSKHLIPMKINAHHSIIPYFKEIHAIINDPQNSANNISTFAGRMKQFSALLSKENMLLGVDAIELGTDADEASSLYKTLLEKLLKQNNQIIITTHHKRLSVLMAENKEVELLAALYDEEKERPTYTFLKGVIGKSYAFETALRYGVPHFLIEKAKTFYGEDKEKLNVLIENSSALERELKQKNEHLENALKEQEYLKNAWLLEMEKQKEIFHNKKLELEKSYQQALNILKSEVASKDTSSMHKEIHKASEILSKHKTNQEIPQIITNFQANEKARYKNESVLIVQILDKGYYWIETELGMRLKAHGSLLKKIQKPPKNKFKPPKTTIPKPKEASLRLDLRGQRSEEALDLLDAFLNDALLGGFEEVLICHGKGSGILEKFVKEFLKNHPKVVSFSDAPINLGGSGVKIVKL
notes: also called Walker-B mutant
B2: HpMutS2: Helicobacter pylori MutS2 (1-762), C-terminally His6-tagged wild-type protein, nuclease and ABC ATPase (protein)
chain: MSDAPKRSLNPTLMMNNNNTPPKPLEESLDLKEFIALFKTFFAKERDTIALENDLKQTFTYLNEVDAIGLPTPKSVKESDLIIIKLTKLGTLHLDEIFEIVKRLHYIVVLQNAFKTFTHLKFHERLNAIVLPPFFNDLIALFDDEGKIKQGANATLDALNESLNRLKKESVKIIHHYARSKELAPYLVDTQSHLKHGYECLLLKSGFSGAIKGVVLERSANGYFYLLPESAQKIAQKIAQIGNEIDCCIVEMCQTLSHSLQKHLLFLKFLFKEFDFLDSLQARLNFAKAYNLEFVMPSFTQKKMILENFSHPILKEPKPLNLKFEKSMLAVTGVNAGGKTMLLKSLLSAAFLSKHLIPMKINAHHSIIPYFKEIHAIINDPQNSANNISTFAGRMKQFSALLSKENMLLGVDEIELGTDADEASSLYKTLLEKLLKQNNQIIITTHHKRLSVLMAENKEVELLAALYDEEKERPTYTFLKGVIGKSYAFETALRYGVPHFLIEKAKTFYGEDKEKLNVLIENSSALERELKQKNEHLENALKEQEYLKNAWLLEMEKQKEIFHNKKLELEKSYQQALNILKSEVASKDTSSMHKEIHKASEILSKHKTNQEIPQIITNFQANEKARYKNESVLIVQILDKGYYWIETELGMRLKAHGSLLKKIQKPPKNKFKPPKTTIPKPKEASLRLDLRGQRSEEALDLLDAFLNDALLGGFEEVLICHGKGSGILEKFVKEFLKNHPKVVSFSDAPINLGGSGVKIVKL
modifications: left off: His6, C-terminal, state not stated
notes: Helicobacter pylori MutS2 (1-762), C-terminally His6-tagged wild-type protein, nuclease and ABC ATPase
B3: HpMutS2-G338R (protein)
chain: MSDAPKRSLNPTLMMNNNNTPPKPLEESLDLKEFIALFKTFFAKERDTIALENDLKQTFTYLNEVDAIGLPTPKSVKESDLIIIKLTKLGTLHLDEIFEIVKRLHYIVVLQNAFKTFTHLKFHERLNAIVLPPFFNDLIALFDDEGKIKQGANATLDALNESLNRLKKESVKIIHHYARSKELAPYLVDTQSHLKHGYECLLLKSGFSGAIKGVVLERSANGYFYLLPESAQKIAQKIAQIGNEIDCCIVEMCQTLSHSLQKHLLFLKFLFKEFDFLDSLQARLNFAKAYNLEFVMPSFTQKKMILENFSHPILKEPKPLNLKFEKSMLAVTGVNAGRKTMLLKSLLSAAFLSKHLIPMKINAHHSIIPYFKEIHAIINDPQNSANNISTFAGRMKQFSALLSKENMLLGVDEIELGTDADEASSLYKTLLEKLLKQNNQIIITTHHKRLSVLMAENKEVELLAALYDEEKERPTYTFLKGVIGKSYAFETALRYGVPHFLIEKAKTFYGEDKEKLNVLIENSSALERELKQKNEHLENALKEQEYLKNAWLLEMEKQKEIFHNKKLELEKSYQQALNILKSEVASKDTSSMHKEIHKASEILSKHKTNQEIPQIITNFQANEKARYKNESVLIVQILDKGYYWIETELGMRLKAHGSLLKKIQKPPKNKFKPPKTTIPKPKEASLRLDLRGQRSEEALDLLDAFLNDALLGGFEEVLICHGKGSGILEKFVKEFLKNHPKVVSFSDAPINLGGSGVKIVKL

Experiments:
[1] = Far-UV circular dichroism spectroscopy; assay type: physicochemical; conditions: protein 1 μM, far-UV CD 200–300 nm
Method: Fig. 3 Mutation induced conformational changes in HpMutS2. a CD-spectroscopy of HpMutS2, HpMutS2-G338R, and HpMutS2-E413A. Far-UV CD spectra of proteins (1 μM) dialyzed in 50 mM Tris-Cl and 100 mM NaCl were recorded between 200–300 nm with 20 mdeg sensitivity at a scan speed of 50 nm using 2 mm path length cuvette with a bandwidth of 2 nm. The spectra were recorded using Jasco-815 spectropolarimeter. Size exclusion chromatographic analysis of b HpMutS2, c HpMutS2-G338R, and d HpMutS2-E413A was performed using Superose-6 gel filtration column at a constant flow rate of 0.3 ml/min. Approximately 150 μg of all the proteins were spun at 10,000 rpm for 10 min at 4 °C before injection. The absorbance was recorded at 280 nm
Freshly prepared proteins were dialyzed twice in buffer B for 4–6 h with at least two changes of the buffer. Far-UV CD spectra of proteins (1 μM) were obtained using a Jasco-815 spectropolarimeter equipped with a Peltier stage (Japan Spectroscopic Co., Japan) at 25 °C. The spectra were recorded between 200–300 nm with 20 mdeg sensitivity at a scan speed of 50 nm using 2 mm path length cuvette with a bandwidth of 2 nm. […] Thermal denaturation of the proteins was monitored at single wavelength (222 nm) by increasing temperature from 25 °C-80 °C. The percentage of unfolded protein was calculated by considering the protein at 25 °C as 100 % folded.

[2] = test system: chymotrypsin; test: Limited proteolysis with chymotrypsin; conditions: 37 °C; for effect of nucleotide pre-incubation on proteolysis: pre-incubation with ADP, ATP or ATPγS 1 mM, 15 min; for susceptibility to proteolysis compared to the wild-type protein: protein 4 μM, chymotrypsin 1.25 ng, 30 min, no nucleotide
Method: Fig. 4 Nucleotide and mutation induced conformational changes in HpMutS2. a Limited proteolysis. Proteins (4 μM) either free or pre-incubated with nucleotides (1 mM) were incubated with chymotrypsin (1.25 ng) for 30 min at 37 °C. All proteolysis reactions were performed in 1X buffer A lacking magnesium. Reactions were stopped by adding a protease inhibitor cocktail and the products were separated on SDS-PAGE (10 %). Lane M: Molecular weight marker. b Thermal stability profiles of wild-type HpMutS2, HpMutS2-G338R, and HpMutS2-E413A. Proteins (1 μM) dialyzed in 50 mM Tris-Cl and 100 mM NaCl were subjected to thermal denaturation and spectra were recorded at 222 nm using Jasco-815 spectropolarimeter
HpMutS2 (4 μM) was incubated with chymotrypsin (1.25 ng) or in buffer A lacking magnesium at 37 °C for 30 min. The reactions were stopped by addition of protease inhibitor cocktail (Sigma) and the proteolyzed products were separated on SDS-PAGE (10 %). Nucleotide cofactors (1 mM) were pre-incubated with the proteins for 15 min at 37 °C before addition of chymotrypsin. The heat denaturation of proteins was performed by heating them at 95 °C for 10 min. All the reactions were performed in 1X buffer A. Protein bands were detected by staining with Coomassie Brilliant Blue.

[3] = ATPase assay of HpMutS2 and mutants (TLC, ATP [γ-32P] tracer); assay type: biochemical; conditions: for kcat value, fold reduced compared to the wild-type protein / V max / k cat: ATP hydrolysis; for V max / k cat: Mg2+ 5 mM, 37 °C, Michaelis-Menten analysis; for Km value, fold higher compared to the wild-type protein: for ATP; for effect of DNA on ATPase activity: 1 μM
Excerpt: Fig. 1 a Schematic representation of HpMutS2 variants used in this study. Walker-A and Walker-B motifs of HpMutS2 were identified by multiple sequence alignment of MutS2 proteins from different bacteria using Clustal Omega (http://www.ebi.ac.uk/Tools/msa/clustalo/). The mutations in the walker-A and Walker-B motifs were introduced using site directed mutagenesis. The mutated amino acids are highlighted in red. All the proteins were C-terminally His6-tagged. The LDLK motif and Smr domain are conserved nuclease sites of HpMutS2. b Effect of DNA substrates on ATPase activity of HpMutS2. HpMutS2 (45 nM) was incubated with increasing concentrations of ATP [0, 10, 20, 40, 60, 80, 100, 200, 400, 600, 800, and 1000 (μM)]. DNA substrates (1 μM) were added separately to the reaction mixtures. After incubation at 37 °C for 30 min the reactions were stopped by EDTA (50 mM) and the products were separated by TLC. ATP [γ-^32P] was used as tracer to monitor the product formation. Reaction velocities were calculated by quantifying the proportion of products formed to un-reacted substrate divided by incubation time TEXT PRINTED IN THE PICTURE: (A) HpMutS2 (1-762): Mol. wt. (kDa): 87.8 | (A) HpMutS2-G338R (1-762): Mol. wt. (kDa): 87.9 | (A) HpMutS2-E413A (1-762): Mol. wt. (kDa): 87.7 | (A) HpMutS2ΔSmr (1-683): Mol. wt. (kDa): 79.3 | (A) HpMutS2ΔSmr-D30A (1-683): Mol. wt. (kDa): 79.2 | (A) HpSmr (684-762): Mol. wt. (kDa): 9.6
To delineate the characteristics of the ATPase activity of HpMutS2, we initially determined the metal ion requirement for ATP hydrolysis by HpMutS2. Purified HpMutS2 was incubated with excess of cold ATP (100 μM) with or without metal ions (5 mM each), and ATP hydrolysis monitored by thin layer chromatography using radiolabeled ATP [γ-^32P] as tracer. […] Based on the above observations, all subsequent ATPase assays were performed in presence of Mg^2+ (5 mM) at 37 °C using the protein concentrations in the linear range of enzymatic activity for 30 min or below.
ATPase activity of HpMutS2 and mutants was carried out in 10 μl of reaction volume containing 1X buffer A (50 mM Tris pH 8.0, 50 mM NaCl, and 1 mM DTT) containing MgCl2 (5 mM), and ATP [γ-^32P] was used as a tracer. A 1:1000 dilution of 25 μC ATP [γ-^32P] (3500 Ci/mmol) was used with indicated amount of the cold ATP in all the assays. All reactions were carried out at 37 °C for indicated time and terminated by the addition of EDTA (50 mM). 1 μl aliquot of each reaction mixture was spotted on a polyethylene cellulose TLC sheets. The reaction components [ATP and inorganic phosphate (Pi)] were separated by thin layer chromatography (TLC) using 0.4 M […] and 0.1 mM EDTA as mobile phase. The dried TLC sheets were visualized by phosphorimaging and quantified using Image Gauge (Version 3.0). The kinetic parameters were determined using the Michaelis–Menten equation by non-linear regression of plot of rate of product formation versus substrate concentration using GraphPad Prism 5 software. Reaction velocities were calculated by quantifying the proportion of products formed to un-reacted substrate divided by incubation time. To determine the effect of DNA on ATPase activity 1 μM of DNA substrates were added separately to the reaction mixture.

[4] = comparison with literature value

Row | Molecule | reduced negative ellipticity compared to the wild-type protein [1] | effect of nucleotide pre-incubation on proteolysis [2] | susceptibility to proteolysis compared to the wild-type protein [2] | kcat value, fold reduced compared to the wild-type protein [3] | V max [3] [µM/min] | k cat [3] [s⁻¹] | Km value, fold higher compared to the wild-type protein [3] | effect of DNA on ATPase activity ([3]; 3′- or 5′-overhangs) | Km value, fold higher compared to T. thermophilus MutS1 [3, 4] | Km value, fold higher compared to Thermus thermophilus MutS2 (TtMutS2) [3, 4] | kcat value, fold higher compared to T. thermophilus MutS1 [3, 4] | kcat value, fold higher compared to Thermus thermophilus MutS2 (TtMutS2) [3, 4] | effect of DNA on ATPase activity ([3]; linear DNA substrates ssDNA, dsDNA)
1 | B1 | 30–34% | only a slight effect | much more resistant | ~ 10 fold | 0.19 ± 0.03 | 0.0703 ± 0.011 | comparable |  |  |  |  |  | 
2 | B2 |  | proteolysis was significantly reduced |  |  | 1.88 ± 0.13 | 0.6962 ± 0.048 |  | negligible increases | ~ 8 fold | ~ 9 fold | ~ 4.5 fold | ~ 20 fold | no effect
3 | B3 | no significant changes | only a slight effect | slightly more susceptible to proteolysis | ~ 3 fold | 0.64 ± 0.15 | 0.237 ± 0.0555 | ~ 2.3 fold |  |  |  |  |  | 

— article PMC4739419, “Mutations in the nucleotide binding and hydrolysis domains of Helicobacter pylori MutS2 lead to altered biochemical activities and inactivation of its in vivo function” (BMC Microbiology, 2016)
